Experimental data taken from US20210047373A1, “BETA BARREL POLYPEPTIDES AND METHODS FOR THEIR USE” (UNIVERSITY OF WASHINGTON, priority 2018, published 2021).
Residue numbers refer to the chain shown, from its start. Values joined by “and” are separate entries in the source; they are usually repeats but may differ in a detail not shown here. Equal entries are not always repeated. Where two headings read alike, the source gives them in different places. Marks after values point to notes of the source that are not given here.

B1: mFAP2: SEQ ID NO:38; variant of b11L5F.1 with 6-residue insertion in the seventh β-turn (protein)
chain: MSRAAQLLPGTWQVTMTNEDGQTSQGQMHFQPRSPYTMDVVAQGTISDGRPISGYGKVTVKTPDTLDVDITYPSLGNIKAQGQITMDSPTQFKFDATTKGAGNFTGRLTGTLQRQE
modifications: (1)..(1) optionally absent
B2: mFAP2.2: SEQ ID NO:41 (protein)
chain: B1 chain with S53V
modifications: (1)..(1) optionally absent
B3: mFAP2.1: SEQ ID NO:40 (protein)
chain: B1 chain with P51T, S53V
modifications: (1)..(1) optionally absent

What was measured:
[1] = Photophysical characterization (absorbance, excitation, emission, extinction coefficient, quantum yield); type: physicochemical
[2] = cited from earlier work
[3] = unbound, free DFHBI in liquid buffer; Paige et al., 2011; cited from earlier work
[4] = Chromophore titration, fit to single binding site isotherm: DFHBI
Method: (§1) Fluorescence binding assay. Protein-activated DFHBI fluorescence signals were measured in 96-well plate format (Corning 3650) on a Synergy neo2 plate reader (BioTek, Inc) with λex=450 nm or 460 nm and λem=500 nm or 510 nm. Binding reactions were performed at […] in PBS pH7.4 buffer. Protein concentrations were determined by 280 nm absorbance as described above. DFHBI (Lucerna, Inc) were resuspended in DMSO as instructed to make 100 mM stock and diluted in PBS to 0.5-10 μM. Approximate emission spectra were recorded for active designs from 490 to 600 nm.
(§2) Table 3A-C. Brightness and chromophore affinities of selected mFAP variants. Fluorescence brightness measurements at 10 μM (top table) and 100 nM (middle table) chromophore concentrations were normalized from 0 to 1 across all three chromophores (DFHBI, DFHBI-1T, and DFHO), and the normalized values for two protein concentrations tested for each chromophore at each chromophore concentration were averaged and standard deviations of the average computed. Reported values are the normalized averages and standard deviations of the means for each chromophore concentration and each chromophore. Reported relative densitometry values are the relative densitometry values normalized from 0 to 1 and represent how well each design expresses relative to one another in Lemo21(DE3) E. coli cultures. Thermodynamic dissociation constants (bottom table) are obtained by non-linear least squares fitting of chromophore titrations (n=1) to a single binding site isotherm, and values reported with the standard deviation of the fit. Where the obtained Kd values are below the protein concentration tested, the Kd and standard deviation of the fit are reported in parentheses. Values with “N/D” were not determined.

[5] = Chromophore titration, fit to single binding site isotherm: DFHBI-1T; details: n=1 titration; ± SD of the fit; Table 3C
Method: as §2

[6] = Chromophore titration, fit to single binding site isotherm: DFHO; details: n=1 titration; ± SD of the fit; Table 3C
Method: as §2

[7] = Fluorescence activation / brightness with DFHBI; type: biochemical; details: normalized 0 to 1 across all three chromophores; average ± SD of two protein concentrations
Method: as §1, §2

[8] = Fluorescence brightness with DFHBI-1T; type: biochemical; details: normalized 0 to 1 across all three chromophores; average ± SD of two protein concentrations
Method: as §2

[9] = Fluorescence brightness with DFHO; type: biochemical; details: normalized 0 to 1 across all three chromophores; average ± SD of two protein concentrations
Method: as §2

[10] = tested on: E. coli, yeast, and mammalian cells; test: Confocal imaging of cells expressing mFAPs with DFHBI; type: cell-based; details: 20 μM DFHBI
Method: To determine whether the designed DFHBI-binding fluorescence-activating proteins function in living cells, we imaged mFAP1- and mFAP2-DFHBI complexes in E. coli, yeast, and mammalian cells by confocal microscopy. […] The quantum yield of mFAP1 and mFAP2 in complex with DFHBI is 2.0% and 2.1% respectively (Table 2).
Confocal image acquisition. Mammalian cell imaging of mFAP1 and mFAP2 was performed in NIH3T3 cells (Flp-In-3T3, Thermo Fisher Scientific, Inc). NIH3T3 cells were cultured in high-glucose DMEM, 4 mM L-glutamine, 10% fetal bovine serum (FBS, Life Technologies, Inc) at 37 degrees Celsius, 5% CO2. Cells were plated at 4×10^4 cells/mL in 35 mm glass-bottomed dishes (Matek, Inc) that were coated with poly-D-lysine. Cells were transfected 24 hours after plating with Lipofectamine™ 3000 (Thermo Fisher Scientific, Inc) at a ratio of 3 μL reagent:1 μL DNA, according to manufacturer's instructions, with […] plasmids of mFAPs or mFAP fusions (1.25 μg mCherry™ plasmid was added to the cytosolic constructs as a transfection control). Right before imaging, cell media was replaced with FluorBrite™ DMEM (Thermo Fisher Scientific, Inc) media supplemented with GlutaMax™ (Thermo Fisher Scientific, Inc) and 10% v/v FBS, and 20 μM DFHBI. […] A white light laser of 488 was used to excite the DFHBI and detected by a HyD detector, over a range of 495-550 nm. […]

[11] = pH-dependent fluorescence of mFAP/DFHBI complexes; type: biochemical
Description: FIG. 22: In vitro characterization of the pH-responsive mFAP_pH and comparison to the existing pHRed system and pH-unresponsive mFAP2b. (a-c) Chemical basis of pH-responsiveness in mFAP_pH. (a) Chemical structures of protonated tautomers and deprotonated resonance structures of DFHBI. […] The arrangement of intermolecular hydrogen bonds in the binding site of mFAP2b (c, binding pocket of the design model with the phenolate form of DFHBI) has low shape complementarity to the protonated DFHBI tautomers. The mutations W27M and W93F improve binding to the protonated DFHBI tautomers (b, model of mFAP_pH binding pocket with the phenolic form of DFHBI). […] (d) Normalized fluorescence excitation spectra of the mFAP_pH/DFHBI complex are shown for a pH titration from pH 3.63 to pH 8.38. (e) mFAP_pH normalized fluorescence emission spectra at pH 3.63 and pH 8.38. […] (f) Binding of mFAP_pH to both the phenolic and phenolate forms of DFHBI results in a high fluorescence ratio fold-change from low to high pH. (h, i) pH-dependent fluorescence of the mFAPpH/DFHBI complex compared to the previously described pHRed system. […] (i) Fluorescence ratios (Fratio) of unnormalized fluorescence measurements from panel (h) for mFAP_pH and pHRed. […]
We sought to further improve fluorescence of the complex at acidic and neutral pH and built a site-directed mutagenesis (SDM) library at 15 positions of mFAP2.1. […]

[12] = Circular dichroism, thermal and GuHCl denaturation; type: physicochemical; details: CD in the absence of DFHBI, pH 2.93
Method: Circular dichroism (CD). Purified protein samples were prepared at 0.5 mg/ml in 20 mM Tris buffer (150 mM NaCl, pH8.0) or PBS buffer (25 mM phosphate, 150 mM NaCl, pH7.4). Wavelength scans from 195 nm to 260 nm were recorded at 25 degrees Celsius, 75 degrees Celsius, 95 degrees Celsius and cooling back to 25 degrees Celsius. Thermal denaturation was monitored at 220 nm or 226 nm from 25 degrees Celsius to 95 degrees Celsius. Near-UV wavelength scan from 240 nm to 320 nm and tryptophan fluorescence emission were recorded in the absence and presence of 5M guanidinium chloride (GuHCl). Chemical denaturation in GuHCl was monitored by both tryptophan fluorescence and near-UV CD signal at 285 nm. The concentration of the GuHCl stock solution was measured with a refractometer (Spectronic Instruments, Inc). Far-UV CD experiments were performed on an AVIV model 420 CD spectrometer (Aviv Biomedical, Inc). Near-UV CD and tryptophan fluorescence experiments were performed on a Jasco J-1500 CD spectrometer (Jasco, Inc). Protein concentrations were determined by 280 nm absorbance with a NanoDrop™spectrophotometer (ThermoScientific, Inc). Melting temperatures were estimated by smoothing the sparse data with a Savitsky-Golay filter of order 3 and approximating the smoothed data with a cubic spline to compute derivatives. Reported Tm values are the inflection points of the melting curves.

[13] = previously reported value, Table 4
[14] = n=1 titration, ± SD of the fit, Table 3C, read-out: DFHBI Kd

Molecule	Kd [4, 14]	Kd [5]	Kd [6]	Fluorescence brightness, 100 nM DFHBI [7]	Fluorescence brightness, 10 μM DFHBI [7]	Fluorescence brightness, 100 nM DFHBI-1T [8]	Fluorescence brightness, 10 μM DFHBI-1T [8]	Fluorescence brightness, 100 nM DFHO [9]	Fluorescence brightness, 10 μM DFHO [9]	other results
CC1=N/C(=C\c2cc(F)c(O)c(F)c2)C(=O)N1C [DFHBI, (Z)-4-(3,5-difluoro-4-hydroxybenzylidene)-1,2-dimethyl-1H-imidazol-5(4H)-one]	–	–	–	–	–	–	–	–	–	Extinction Coefficient ([1]; Table 2): 31,935 M^−1cm^−1; Absolute Quantum Yield ([1]; integrating sphere, Table 2): 0.001; λabs ([1]; peak absorbance wavelength, Table 2): 418 nm; Absolute Quantum Yield ([2]; previously reported value [1], Table 4): 0.001^#; λabs [2, 13]: 418^†# nm; λem [2, 13]: 489^† nm; λex [2, 13]: 423^† nm; Reported Quantum Yield ([2]; previously reported value): 0.0007^†; Relative Quantum Yield ([2]; reported value (ref 25), Table 2): 0.0007***; pKa [3]: 5.5
B1	1.15 ± 0.16 µM	43.2 ± 7.01 µM	22.7 ± 9.66 µM	0.12 ± 0.0	0.14 ± 0.03	0.15 ± 0.01	0.33 ± 0.04	0.01 ± 0.0	0.01 ± 0.0	Quantum yield in complex with DFHBI ([1]; absolute): 2.1%; Kd ([4]; read-out: Dissociation constant of DFHBI): ~0.2 µM and ~0.18 µM; In vivo fluorescence activation [10]: showed in vivo fluorescence activation
B2	1.15 ± 0.16 µM	43.2 ± 7.01 µM	22.7 ± 9.66 µM	0.13 ± 0.0	0.17 ± 0.03	0.33 ± 0.02	0.55 ± 0.02	0.01 ± 0.0	0.01 ± 0.0	Fluorescence ratio fold-change, higher than mFAP2.1 ([11]; across pH 3.66-7.36): ~1.3 fold
B3	–	–	–	0.13 ± 0.0	0.07 ± 0.02	0.34 ± 0.01	0.25 ± 0.01	0.01 ± 0.0	0.01 ± 0.0	Stability at low pH [12]: improved stability; Fluorescence in the presence of DFHBI at acidic pH ([11]; pH 3.66): higher fluorescence
